According to article PMC4577212, “X-Ray Structure and Mutagenesis Studies of the N-Isopropylammelide Isopropylaminohydrolase, AtzC” (PLoS ONE, 2015):

What follows are substances tested on T1, Nc1nc(O)nc(O)n1 (assay: purified protein). Settings: 200 mM sodium phosphate pH 7.5, glycerol, 301 K, 28.0 °C.
T1 construct: full length, N-terminal His-tag (pETCC2, from pET14b), expressed in E. coli BL21(DE3); tag cut with thrombin for crystals; homotetramer ~210 kDa; Zn enzyme
Type: biochemical, Pseudomonas sp. ADP

Point of comparison: “AtzC (N-isopropylammelide isopropylaminohydrolase) (Pseudomonas sp. ADP; D188A)”, Km 2200 ± 200 µM. Against it:
- AtzC (N-isopropylammelide isopropylaminohydrolase) (Pseudomonas sp. ADP; Q160A) — within error, 1800 ± 300 µM
- AtzC (N-isopropylammelide isopropylaminohydrolase) (Pseudomonas sp. ADP; D303N) — 2.8-fold higher, 6100 ± 600 µM
- AtzC (N-isopropylammelide isopropylaminohydrolase) (Pseudomonas sp. ADP; N304D) — 11-fold higher, 25000 ± 4500 µM
- AtzC (N-isopropylammelide isopropylaminohydrolase) (Pseudomonas sp. ADP; Q160E) — 1.7-fold lower, 1300 ± 100 µM
- AtzC (N-isopropylammelide isopropylaminohydrolase) (Pseudomonas sp. ADP; K65R) — within error, 2400 ± 300 µM
- AtzC (N-isopropylammelide isopropylaminohydrolase) (Pseudomonas sp. ADP; K65A) — 2.8-fold higher, 6100 ± 600 µM
- AtzC (N-isopropylammelide isopropylaminohydrolase) (Pseudomonas sp. ADP; N304A) — 1.9-fold higher, 4200 ± 200 µM
- AtzC (N-isopropylammelide isopropylaminohydrolase) (Pseudomonas sp. ADP; H219A) — within error, 1600 ± 400 µM

Point of comparison: “AtzC (N-isopropylammelide isopropylaminohydrolase) (Pseudomonas sp. ADP; K65R)”, kcat 332 ± 34.3 s⁻¹. Against it:
- AtzC (N-isopropylammelide isopropylaminohydrolase) (Pseudomonas sp. ADP; Q160A) — 14-fold lower, 23 ± 3.5 s⁻¹
- AtzC (N-isopropylammelide isopropylaminohydrolase) (Pseudomonas sp. ADP; D303N) — 3.7-fold lower, 90.4 ± 8.9 s⁻¹
- AtzC (N-isopropylammelide isopropylaminohydrolase) (Pseudomonas sp. ADP; N304D) — 1.8-fold lower, 189 ± 34 s⁻¹
- AtzC (N-isopropylammelide isopropylaminohydrolase) (Pseudomonas sp. ADP; Q160E) — 32-fold lower, 10.4 ± 0.5 s⁻¹
- AtzC (N-isopropylammelide isopropylaminohydrolase) (Pseudomonas sp. ADP; D188A) — 3.1-fold lower, 106 ± 11.4 s⁻¹
- AtzC (N-isopropylammelide isopropylaminohydrolase) (Pseudomonas sp. ADP; K65A) — 2.3-fold higher, 778 ± 79.7 s⁻¹
- AtzC (N-isopropylammelide isopropylaminohydrolase) (Pseudomonas sp. ADP; N304A) — 11-fold lower, 29.3 ± 1.7 s⁻¹
- AtzC (N-isopropylammelide isopropylaminohydrolase) (Pseudomonas sp. ADP; H219A) — 20-fold lower, 16.8 ± 4 s⁻¹

Point of comparison: “AtzC (N-isopropylammelide isopropylaminohydrolase) (Pseudomonas sp. ADP; D188A)”, kcat/Km 49000 M⁻¹ s⁻¹. Against it:
- AtzC (N-isopropylammelide isopropylaminohydrolase) (Pseudomonas sp. ADP; Q160A) — 3.8-fold lower, 13000 M⁻¹ s⁻¹
- AtzC (N-isopropylammelide isopropylaminohydrolase) (Pseudomonas sp. ADP; D303N) — 3.3-fold lower, 15000 M⁻¹ s⁻¹
- AtzC (N-isopropylammelide isopropylaminohydrolase) (Pseudomonas sp. ADP; N304D) — 6.4-fold lower, 7600 M⁻¹ s⁻¹
- AtzC (N-isopropylammelide isopropylaminohydrolase) (Pseudomonas sp. ADP; Q160E) — 6-fold lower, 8100 M⁻¹ s⁻¹
- AtzC (N-isopropylammelide isopropylaminohydrolase) (Pseudomonas sp. ADP; K65R) — 2.9-fold higher, 140000 M⁻¹ s⁻¹
- AtzC (N-isopropylammelide isopropylaminohydrolase) (Pseudomonas sp. ADP; K65A) — 2.7-fold higher, 130000 M⁻¹ s⁻¹
- AtzC (N-isopropylammelide isopropylaminohydrolase) (Pseudomonas sp. ADP; N304A) — 7-fold lower, 7000 M⁻¹ s⁻¹
- AtzC (N-isopropylammelide isopropylaminohydrolase) (Pseudomonas sp. ADP; H219A) — 4.5-fold lower, 11000 M⁻¹ s⁻¹

What follows are substances tested on Nc1nc(O)nc(O)n1 (assay: purified protein). Settings: 200 mM sodium phosphate pH 7.5, glycerol, 301 K, 28.0 °C.

In the case of “AtzC (N-isopropylammelide isopropylaminohydrolase) (Pseudomonas sp. ADP; D188N)”, the Km is reported as 1900 ± 500 µM.
